# Reference: paper PMC3293552
# Target: Fluorescein-labeled ATS-FL Q150C variant (Plasmodium falciparum)
# Assay: fluorescence polarisation
substance,measurement,value
PFI1780w fragment spanning residues 80-280 (PHISTc-type domain) (domain or fragment),Kd,150 µM
